# According to PMC7708983, “A combined NMR and EPR investigation on the effect of the disordered RGG regions in the structure and the activity of the RRM domain of FUS”:
# B1: hnRNPA2/B1 stem-loop RNA (structured_RNA)
# RNA: GGCAGAUUACAAUUCUAUUUGCC
# Biological target: FUS165-422 (RGG1-RRM-RGG2) (UniProt P35637 165-422)
# Assay: NMR 1H-15N HSQC chemical shift changes; 1:1 molar ratio; largest shifts near residues 286, 326, 369; 20 mM MES pH 6.5, 150 mM NaCl, RNase free; CW-EPR at room temperature; NMR temperature not given in the material
# Settings: protein: recombinant; tags: His-MBP tag removed by TEV; hairpin
# FUS165-422 (RGG1-RRM-RGG2), sequence (P35637 165-422): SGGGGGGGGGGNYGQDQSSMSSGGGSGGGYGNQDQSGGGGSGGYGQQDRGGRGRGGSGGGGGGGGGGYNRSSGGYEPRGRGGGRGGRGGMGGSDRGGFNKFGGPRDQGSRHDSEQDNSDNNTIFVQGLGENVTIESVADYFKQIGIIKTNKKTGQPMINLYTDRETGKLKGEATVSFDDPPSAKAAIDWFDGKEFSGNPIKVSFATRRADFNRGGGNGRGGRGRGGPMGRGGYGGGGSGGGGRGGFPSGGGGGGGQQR
binder,measurement,value
B1,binding result,binds
